Experiments:
[1] = target: HLA-B27 free heavy chains generated from immobilised heterotrimers (human); experiment: SPR
[2] = target: HLA-B27 heterotrimer complexed with the HIV GAG-KK10 L6M escape mutant peptide (human | not stated | HIV); experiment: SPR
HLA-A3 heterotrimer = experiment: SPR
[3] = target: HLA-A2 expressed by transfected LBL.721.221 cells (human); experiment: flow cytometry on cells
[4] = target: HLA-B35 expressed by transfected LBL.721.221 cells (human); experiment: flow cytometry on cells
[5] = target: c67s mutant of HLA-B*2705 expressed by transfected LBL.721.221 cells (human); experiment: flow cytometry on cells
[6] = target: HLA-B*2705 expressed by transfected LBL.721.221 cells (human); experiment: flow cytometry on cells
[7] = target: HLA-A3 expressed by transfected LBL.721.221 cells (human); experiment: flow cytometry on cells

| Substance | Kd [1] [µM] | Kd [2] [µM] | Kd (HLA-A3 heterotrimer) [µM] | geometric mean fluorescent intensity [3] | geometric mean fluorescent intensity [4] | geometric mean fluorescent intensity [5] | geometric mean fluorescent intensity [6] | geometric mean fluorescent intensity after inhibition with HC10 [6] | geometric mean fluorescent intensity after inhibition with W632 [6] | geometric mean fluorescent intensity after isotype control MAbs [6] | geometric mean fluorescent intensity [7] |
| --- | --- | --- | --- | --- | --- | --- | --- | --- | --- | --- | --- |
| LILRB2 incorporating the two immunoglobulin-like domains D1 and D2 (domain or fragment) | 2.6 | 16 | 25.3 | – | – | – | – | – | – | – | – |
| LILRB1 incorporating the two immunoglobulin-like domains D1 and D2 (domain or fragment) | – | 3.93 | – | – | – | – | – | – | – | – | – |
| Soluble LILRB2Fc incorporating the D1, D2, D3 and D4 domains of LILRB2 (Fc fusion) | – | – | – | 233 | 81 | 24 | 568 | 244 | 161 | 489 | 107 |

— article PMC3622243
